In the series the target is ERK2 (unactivated, unphosphorylated) (UniProt P28482 P28482:2-360). Briefly: cleavage_in_vitro; half-maximal allozyme activation; about 100-fold activation by ERK2; 100 mM KCl, 1 mM MgCl2, 10 mM Tris 7.5, 34 C; text cites SEQ 39, listing gives Erk sensor molecule as SEQ 42. The protocol: To examine the dependence of activation on the concentration of ERK2, various amounts of ERK2 were added to different reactions (FIG. 31b). One half-maximal nucleic acid sensor molecule activation is promoted by ˜800 pg/μl ERK2.
Sequence of ERK2 (unactivated, unphosphorylated) (P28482 2-360, one chain of several): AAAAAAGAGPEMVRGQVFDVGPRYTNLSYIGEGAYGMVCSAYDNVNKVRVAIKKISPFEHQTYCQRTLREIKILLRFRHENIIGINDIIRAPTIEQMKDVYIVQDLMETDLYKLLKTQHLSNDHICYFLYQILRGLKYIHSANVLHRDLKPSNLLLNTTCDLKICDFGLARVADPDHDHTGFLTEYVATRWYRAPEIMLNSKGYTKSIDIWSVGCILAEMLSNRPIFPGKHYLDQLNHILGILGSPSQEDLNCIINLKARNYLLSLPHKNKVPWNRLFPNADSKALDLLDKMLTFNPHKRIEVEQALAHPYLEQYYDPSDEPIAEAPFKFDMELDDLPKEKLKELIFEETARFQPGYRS

Broadly, the EC50 is the concentration needed to bring the measured effect to its halfway point. Read a low EC50 as an effect from little substance.

B1: ERK2-responsive hammerhead allozyme (ssRNA)
RNA: GCGUGACCUGAUGAGUCACGCUAAGGAGGAUUUCCGAAAGCGGCUACGGUCCGCCAGUGUUACGAAACGUUCCC
With B1, the EC50 was ~0.8 µg/mL.

For the origin of these results see patent US20020102568, “Nucleic acid sensor molecules” (published 2002).
